Data as given in patent publication US20210063414A1, “METHODS FOR PREVENTING AND/OR TREATING BONE LOSS CONDITIONS BY MODULATING IRISIN” (Dana-Farber Cancer Institute, Inc., priority 2018, published 2021).

What was measured:
Test in all cases: Crosslinking/co-immunoprecipitation/mass spectrometry (TMT quantitative proteomics) to identify irisin receptors
Assay type in all cases: binding
[1] = molecular target: T1, MLO-Y4 cell surface proteins (Mus musculus, UniProt P97360); conditions: co-precipitated protein Etv6 (ETV6_MOUSE)
T1 construct: endogenous in cells; host or cells: MLO-Y4
T1 sequence (P97360 1-485): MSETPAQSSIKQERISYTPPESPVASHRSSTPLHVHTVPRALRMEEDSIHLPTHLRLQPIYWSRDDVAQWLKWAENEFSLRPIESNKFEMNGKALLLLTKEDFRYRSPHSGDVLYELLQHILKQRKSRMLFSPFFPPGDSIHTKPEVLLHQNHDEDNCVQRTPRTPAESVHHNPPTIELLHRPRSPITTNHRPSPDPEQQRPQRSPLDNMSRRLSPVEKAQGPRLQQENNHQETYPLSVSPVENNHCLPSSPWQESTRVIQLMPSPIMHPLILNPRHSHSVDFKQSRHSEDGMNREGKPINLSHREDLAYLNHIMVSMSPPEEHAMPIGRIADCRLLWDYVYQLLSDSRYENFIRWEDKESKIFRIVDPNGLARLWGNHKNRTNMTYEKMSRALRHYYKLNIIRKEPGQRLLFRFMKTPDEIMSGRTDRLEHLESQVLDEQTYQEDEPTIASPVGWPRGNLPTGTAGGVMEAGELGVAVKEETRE
How it was run: (§1)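 Relative protein abundance came from 6-plex TMT MS3 quantitation on an Orbitrap Fusion Lumos, after in-gel trypsin digestion of Coomassie-stained SDS-PAGE lanes. Input was a Ni-NTA pulldown (250 mM imidazole elution) of lysates from murine MLO-Y4 cells. These cells were treated on ice with His-tagged irisin or adipsin (10 nM, 20 min) in serum-free medium, then crosslinked with 1.5 mM DTSSP for 30 min.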

[2] = molecular target: T2, MLO-Y4 cell surface proteins (Mus musculus, UniProt Q921G7); conditions: co-precipitated protein Etfdh (ETFD_MOUSE)
T2 construct: endogenous in cells; host or cells: MLO-Y4
T2 sequence (Q921G7 33-616): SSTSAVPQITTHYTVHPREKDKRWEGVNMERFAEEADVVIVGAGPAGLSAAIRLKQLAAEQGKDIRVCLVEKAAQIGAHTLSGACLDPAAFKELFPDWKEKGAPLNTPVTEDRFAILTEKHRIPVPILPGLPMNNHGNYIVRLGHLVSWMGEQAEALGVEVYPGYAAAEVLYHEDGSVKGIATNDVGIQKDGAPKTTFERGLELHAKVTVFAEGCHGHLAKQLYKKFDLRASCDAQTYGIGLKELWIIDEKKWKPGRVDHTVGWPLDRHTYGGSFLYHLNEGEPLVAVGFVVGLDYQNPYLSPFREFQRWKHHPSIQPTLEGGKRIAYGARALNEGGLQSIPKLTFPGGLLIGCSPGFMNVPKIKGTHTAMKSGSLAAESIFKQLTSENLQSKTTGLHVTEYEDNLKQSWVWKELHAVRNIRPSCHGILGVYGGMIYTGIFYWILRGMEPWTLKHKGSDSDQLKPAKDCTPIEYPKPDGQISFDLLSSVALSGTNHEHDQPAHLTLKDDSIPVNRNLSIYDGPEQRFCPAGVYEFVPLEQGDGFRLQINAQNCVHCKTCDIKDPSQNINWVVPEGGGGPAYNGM
How it was run: as §1

[3] = molecular target: T3, MLO-Y4 cell surface proteins (Mus musculus, UniProt P62880); conditions: co-precipitated protein Gnb2 (GBB2_MOUSE)
T3 construct: endogenous in cells; host or cells: MLO-Y4
How it was run: as §1

T3 sequence (P62880 whole entry): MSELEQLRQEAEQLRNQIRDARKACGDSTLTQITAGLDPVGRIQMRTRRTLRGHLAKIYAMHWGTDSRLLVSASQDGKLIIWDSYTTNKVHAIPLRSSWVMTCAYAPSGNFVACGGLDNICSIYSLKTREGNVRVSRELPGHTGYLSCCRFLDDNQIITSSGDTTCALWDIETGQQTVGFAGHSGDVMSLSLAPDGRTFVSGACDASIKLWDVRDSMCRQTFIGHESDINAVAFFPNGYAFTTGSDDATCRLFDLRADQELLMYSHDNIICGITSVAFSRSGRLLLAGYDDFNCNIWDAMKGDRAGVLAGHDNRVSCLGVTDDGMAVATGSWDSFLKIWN

B1: irisin: secreted cleaved form of FNDC5; recombinant human/mouse irisin with C-terminal his tag produced in HEK293 cells (protein)
chain: DSPSAPVNVTVRHLKANSAVVSWDVLEDEVVIGFAISQQKKDVRMLRFIQEVNTTTRSCALWDLEEDTEYIVHVQAISIQGQSPASEPVLFKTPREAEKMASKNKDEVTMKE
modifications: left off: small tags and cut ends
notes: secreted cleaved form of FNDC5; recombinant human/mouse irisin with C-terminal his tag produced in HEK293 cells
[1]
  TMT signal-to-noise ratio: 74.6472
  irisin/adipsin TMT signal-to-noise ratio: 0.544
[2]
  TMT signal-to-noise ratio: 30.6918
  irisin/adipsin TMT signal-to-noise ratio: 0.532
[3]
  TMT signal-to-noise ratio: 165.95
  irisin/adipsin TMT signal-to-noise ratio: 0.563
